The results in this text go back to PMC6443348, “Protein denaturation at the air-water interface and how to prevent it” (eLife, 2019).

This assay addresses T1, fatty acid synthase (FAS) from Saccharomyces cerevisiae, beta subunit (forms the beta-domes) (Saccharomyces cerevisiae, UniProt P07149 1-2051).
T1 construct: Fatty acid synthase subunit beta, Saccharomyces cerevisiae; also called yeast FAS
Description: cryo-EM structure; single-particle cryo-EM of purified FAS complex (0.2 mg/ml) on hydrophilized graphene grids; maps at 4.8 Å (C1) and 4.0 Å (D3 symmetry). The conditions noted are these: both partners purified.

T1 sequence (P07149 whole entry): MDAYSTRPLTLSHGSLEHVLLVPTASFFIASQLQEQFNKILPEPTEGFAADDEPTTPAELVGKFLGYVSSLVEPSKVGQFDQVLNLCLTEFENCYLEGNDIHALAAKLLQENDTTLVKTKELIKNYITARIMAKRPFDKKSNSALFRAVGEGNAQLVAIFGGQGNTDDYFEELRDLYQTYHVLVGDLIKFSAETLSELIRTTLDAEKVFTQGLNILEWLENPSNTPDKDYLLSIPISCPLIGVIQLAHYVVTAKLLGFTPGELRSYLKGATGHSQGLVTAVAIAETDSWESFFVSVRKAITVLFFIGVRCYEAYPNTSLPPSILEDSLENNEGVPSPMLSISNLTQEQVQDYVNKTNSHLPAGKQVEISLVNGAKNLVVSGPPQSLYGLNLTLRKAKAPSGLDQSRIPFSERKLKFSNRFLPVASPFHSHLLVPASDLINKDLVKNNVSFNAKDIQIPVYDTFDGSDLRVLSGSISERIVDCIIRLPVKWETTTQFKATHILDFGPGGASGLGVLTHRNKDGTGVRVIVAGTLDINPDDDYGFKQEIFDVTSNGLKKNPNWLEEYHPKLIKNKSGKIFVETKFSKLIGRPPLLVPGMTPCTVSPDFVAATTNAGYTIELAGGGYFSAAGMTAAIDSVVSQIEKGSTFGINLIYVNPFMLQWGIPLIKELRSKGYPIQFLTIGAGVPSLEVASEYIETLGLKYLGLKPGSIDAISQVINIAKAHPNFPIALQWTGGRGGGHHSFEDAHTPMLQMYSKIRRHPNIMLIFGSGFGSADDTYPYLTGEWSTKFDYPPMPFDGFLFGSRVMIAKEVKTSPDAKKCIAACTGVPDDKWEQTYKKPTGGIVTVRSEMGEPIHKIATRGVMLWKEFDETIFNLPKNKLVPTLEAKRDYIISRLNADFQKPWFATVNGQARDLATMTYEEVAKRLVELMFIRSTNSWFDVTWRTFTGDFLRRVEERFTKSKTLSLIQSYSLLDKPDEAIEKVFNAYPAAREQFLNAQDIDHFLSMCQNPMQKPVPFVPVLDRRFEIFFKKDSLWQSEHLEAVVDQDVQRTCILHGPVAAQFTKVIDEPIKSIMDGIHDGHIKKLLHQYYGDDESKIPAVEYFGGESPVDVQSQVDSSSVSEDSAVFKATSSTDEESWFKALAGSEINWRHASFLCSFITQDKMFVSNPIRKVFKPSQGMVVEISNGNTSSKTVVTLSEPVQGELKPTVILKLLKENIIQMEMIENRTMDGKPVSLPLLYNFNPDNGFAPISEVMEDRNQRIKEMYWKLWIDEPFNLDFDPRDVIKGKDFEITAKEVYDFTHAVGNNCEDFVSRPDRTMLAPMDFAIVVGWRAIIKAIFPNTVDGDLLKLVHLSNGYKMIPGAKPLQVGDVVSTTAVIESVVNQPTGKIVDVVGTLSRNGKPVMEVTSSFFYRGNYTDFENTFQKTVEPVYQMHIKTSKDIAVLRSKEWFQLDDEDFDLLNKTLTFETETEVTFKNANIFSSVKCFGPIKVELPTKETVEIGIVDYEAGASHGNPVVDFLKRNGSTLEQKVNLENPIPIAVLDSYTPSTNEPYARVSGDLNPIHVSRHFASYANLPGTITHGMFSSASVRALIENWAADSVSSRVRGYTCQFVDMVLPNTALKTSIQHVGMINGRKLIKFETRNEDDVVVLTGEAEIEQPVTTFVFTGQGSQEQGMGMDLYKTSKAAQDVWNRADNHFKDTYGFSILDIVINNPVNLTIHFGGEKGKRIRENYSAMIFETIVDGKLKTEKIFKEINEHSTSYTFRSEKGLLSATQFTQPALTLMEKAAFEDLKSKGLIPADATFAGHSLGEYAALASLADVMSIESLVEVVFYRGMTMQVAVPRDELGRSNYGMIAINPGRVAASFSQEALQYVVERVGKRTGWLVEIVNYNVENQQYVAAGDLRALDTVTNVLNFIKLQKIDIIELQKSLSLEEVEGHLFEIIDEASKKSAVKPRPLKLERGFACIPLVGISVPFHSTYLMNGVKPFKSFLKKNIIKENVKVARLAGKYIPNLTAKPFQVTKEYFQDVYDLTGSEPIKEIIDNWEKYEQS

B1: fatty acid synthase (FAS) from Saccharomyces cerevisiae, alpha subunit (forms the alpha wheel) (natural protein, UniProt P19097 1-1887, looked up)
chain: MKPEVEQELAHILLTELLAYQFASPVRWIETQDVFLKDFNTERVVEIGPSPTLAGMAQRTLKNKYESYDAALSLHREILCYSKDAKEIYYTPDPSELAAKEEPAKEEAPAPTPAASAPAPAAAAPAPVAAAAPAAAAAEIADEPVKASLLLHVLVAHKLKKSLDSIPMSKTIKDLVGGKSTVQNEILGDLGKEFGTTPEKPEETPLEELAETFQDTFSGALGKQSSSLLSRLISSKMPGGFTITVARKYLQTRWGLPSGRQDGVLLVALSNEPAARLGSEADAKAFLDSMAQKYASIVGVDLSSAASASGAAGAGAAAGAAMIDAGALEEITKDHKVLARQQLQVLARYLKMDLDNGERKFLKEKDTVAELQAQLDYLNAELGEFFVNGVATSFSRKKARTFDSSWNWAKQSLLSLYFEIIHGVLKNVDREVVSEAINIMNRSNDALIKFMEYHISNTDETKGENYQLVKTLGEQLIENCKQVLDVDPVYKDVAKPTGPKTAIDKNGNITYSEEPREKVRKLSQYVQEMALGGPITKESQPTIEEDLTRVYKAISAQADKQDISSSTRVEFEKLYSDLMKFLESSKEIDPSQTTQLAGMDVEDALDKDSTKEVASLPNKSTISKTVSSTIPRETIPFLHLRKKTPAGDWKYDRQLSSLFLDGLEKAAFNGVTFKDKYVLITGAGKGSIGAEVLQGLLQGGAKVVVTTSRFSKQVTDYYQSIYAKYGAKGSTLIVVPFNQGSKQDVEALIEFIYDTEKNGGLGWDLDAIIPFAAIPEQGIELEHIDSKSEFAHRIMLTNILRMMGCVKKQKSARGIETRPAQVILPMSPNHGTFGGDGMYSESKLSLETLFNRWHSESWANQLTVCGAIIGWTRGTGLMSANNIIAEGIEKMGVRTFSQKEMAFNLLGLLTPEVVELCQKSPVMADLNGGLQFVPELKEFTAKLRKELVETSEVRKAVSIETALEHKVVNGNSADAAYAQVEIQPRANIQLDFPELKPYKQVKQIAPAELEGLLDLERVIVVTGFAEVGPWGSARTRWEMEAFGEFSLEGCVEMAWIMGFISYHNGNLKGRPYTGWVDSKTKEPVDDKDVKAKYETSILEHSGIRLIEPELFNGYNPEKKEMIQEVIVEEDLEPFEASKETAEQFKHQHGDKVDIFEIPETGEYSVKLLKGATLYIPKALRFDRLVAGQIPTGWNAKTYGISDDIISQVDPITLFVLVSVVEAFIASGITDPYEMYKYVHVSEVGNCSGSGMGGVSALRGMFKDRFKDEPVQNDILQESFINTMSAWVNMLLISSSGPIKTPVGACATSVESVDIGVETILSGKARICIVGGYDDFQEEGSFEFGNMKATSNTLEEFEHGRTPAEMSRPATTTRNGFMEAQGAGIQIIMQADLALKMGVPIYGIVAMAATATDKIGRSVPAPGKGILTTAREHHSSVKYASPNLNMKYRKRQLVTREAQIKDWVENELEALKLEAEEIPSEDQNEFLLERTREIHNEAESQLRAAQQQWGNDFYKRDPRIAPLRGALATYGLTIDDLGVASFHGTSTKANDKNESATINEMMKHLGRSEGNPVIGVFQKFLTGHPKGAAGAWMMNGALQILNSGIIPGNRNADNVDKILEQFEYVLYPSKTLKTDGVRAVSITSFGFGQKGGQAIVVHPDYLYGAITEDRYNEYVAKVSAREKSAYKFFHNGMIYNKLFVSKEHAPYTDELEEDVYLDPLARVSKDKKSGSLTFNSKNIQSKDSYINANTIETAKMIENMTKEKVSNGGVGVDVELITSINVENDTFIERNFTPQEIEYCSAQPSVQSSFAGTWSAKEAVFKSLGVKSLGGGAALKDIEIVRVNKNAPAVELHGNAKKAAEEAGVTDVKVSISHDDLQAVAVAVSTKK
notes: Fatty acid synthase subunit alpha, Saccharomyces cerevisiae; also called yeast FAS
As for B1, the binding result is “binds”.
